According to article PMC6901939, “A Novel Single Domain Antibody Targeting FliC Flagellin of Salmonella enterica for Effective Inhibition of Host Cell Invasion” (Frontiers in Microbiology, 2019):

Molecular target: T1, FliC flagellin of S. enterica serovar Typhimurium (Salmonella enterica serovar …, UniProt P06179)
T1 construct: FliC flagellin, Salmonella enterica serovar Typhimurium; also called purified FliC; source: bought: Sigma-Aldrich
Experiment: BLI; sdAb immobilized on nickel-charged biosensors and dipped into FliC at 250, 125, 62.5, 31.3 and 15.6 nM
Conditions: both partners purified

T1 sequence (P06179 whole entry): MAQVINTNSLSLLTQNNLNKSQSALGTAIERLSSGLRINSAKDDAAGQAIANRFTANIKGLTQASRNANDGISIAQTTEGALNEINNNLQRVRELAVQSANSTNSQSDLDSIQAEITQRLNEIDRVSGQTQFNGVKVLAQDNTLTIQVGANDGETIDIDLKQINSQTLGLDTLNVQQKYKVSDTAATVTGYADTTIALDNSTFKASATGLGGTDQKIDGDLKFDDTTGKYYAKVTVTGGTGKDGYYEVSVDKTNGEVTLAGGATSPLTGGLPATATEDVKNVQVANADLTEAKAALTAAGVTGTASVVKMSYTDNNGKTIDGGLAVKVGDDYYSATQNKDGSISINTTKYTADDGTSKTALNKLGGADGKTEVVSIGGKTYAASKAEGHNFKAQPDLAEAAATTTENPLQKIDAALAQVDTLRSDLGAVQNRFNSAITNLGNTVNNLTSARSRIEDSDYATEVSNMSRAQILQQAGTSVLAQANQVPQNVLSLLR

B1: Abi-Se07 (VHH)
VHH: QVQLVESGGGLVQAGGSLRLSCTDSGRTFSVKPMGWFRQAPGMEREFVAAASFTGVSTFYADSVKDRFTIFRDKDKNTMDLQINSLKPEDTGAYYCAGTTRTLWGSKWRDVLEYEYWGQGTQVTVSS
notes: X2 = V or K), CDR2 ASX3TGVST (X3 = F or Y), CDR3 AGTX4RTLWGSKWRDX5X6EYEY (X4 = T or L; X5 = V or R; X6 = L or R); CDR3 is 20 amino acids long; The c-myc tag lies between the VHH and the His6 tag, so it probably stayed on the protein; Gene synthesized and cloned into pET27b; also called 0A07; anti-Salmonella sdAb; not shown: His6, C-terminal, kept
  Kd: 16.2 nM
